From PMC13368180, “In silico design and validation of high-affinity RNA aptamers for SARS-CoV-2 comparable to neutralizing antibodies”
Numbering of substitutions follows the chain as printed.

Molecular target: SARS-CoV-2 spike RBD (SARS-CoV-2, UniProt P0DTC2 319-541)
Assay: EMSA
Details: protein: commercial

GGUCCUGGACCGAUACUUCCGUCAGGACCA (structured_RNA) [Tc (RBD-PB6-Tc)]
binding result (hairpin): no binding

B1: Ta (RBD-PB6-Ta) (structured_RNA)
RNA: GGCGACAUUUGUAAUUCCUGGACCGAUACUUCCGUCAGGACAGAGGUUGCCA
Kd: 111 µM

B2: TaG34C (structured_RNA)
RNA: B1 RNA with G34C
Kd: 33.5 ± 1.6 µM

B3: TaG34A (structured_RNA)
RNA: B1 RNA with G34A
Kd: 55.5 ± 4.1 µM

B4: TaC23A (structured_RNA)
RNA: B1 RNA with C23A
Kd: 55.7 ± 9.8 µM

B5: TaC23U (structured_RNA)
RNA: B1 RNA with C23U
Kd: 48.7 ± 2 µM

B6: TaC23G (structured_RNA)
RNA: B1 RNA with C23G
Kd: 168 µM

B7: TaG34U (structured_RNA)
RNA: B1 RNA with G34U
Kd: 54.7 ± 2 µM
